Data published in patent US20260008857A1 (FLAGSHIP PIONEERING INNOVATIONS VI, published 2026).
Where two headings read alike, the source gives them in different places.

Key:
[1] = target: T1, human IL-4Rα (interleukin 4 receptor subunit alpha) (human, UniProt P24394 26-232, limits assumed); test: SPR, Carterra LSA non-regenerative capture kinetics; antibody captured on goat anti-human polyclonal lawn, human IL-4Rα as analyte, 25 C, 1:1 model; average ± SD of technical replicates
T1 sequence (looked up): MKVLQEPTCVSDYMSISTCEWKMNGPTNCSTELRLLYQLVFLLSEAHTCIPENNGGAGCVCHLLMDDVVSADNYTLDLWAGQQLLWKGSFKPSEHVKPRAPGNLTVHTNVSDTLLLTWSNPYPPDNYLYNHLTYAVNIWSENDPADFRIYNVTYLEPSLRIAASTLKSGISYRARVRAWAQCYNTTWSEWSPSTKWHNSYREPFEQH

[2] = target: T1, human IL-4Rα (interleukin 4 receptor …); test: indirect ELISA on plate-coated recombinant human IL-4Rα (2 ug/mL), anti-human IgG Fc-HRP, A450
[3] = target: T2, IL-4Rα on human primary cells (primary B cells, whole blood B and T cells, PBMCs) (human, UniProt P24394 26-825); test: cell-based or functional assay
T2 sequence (looked up): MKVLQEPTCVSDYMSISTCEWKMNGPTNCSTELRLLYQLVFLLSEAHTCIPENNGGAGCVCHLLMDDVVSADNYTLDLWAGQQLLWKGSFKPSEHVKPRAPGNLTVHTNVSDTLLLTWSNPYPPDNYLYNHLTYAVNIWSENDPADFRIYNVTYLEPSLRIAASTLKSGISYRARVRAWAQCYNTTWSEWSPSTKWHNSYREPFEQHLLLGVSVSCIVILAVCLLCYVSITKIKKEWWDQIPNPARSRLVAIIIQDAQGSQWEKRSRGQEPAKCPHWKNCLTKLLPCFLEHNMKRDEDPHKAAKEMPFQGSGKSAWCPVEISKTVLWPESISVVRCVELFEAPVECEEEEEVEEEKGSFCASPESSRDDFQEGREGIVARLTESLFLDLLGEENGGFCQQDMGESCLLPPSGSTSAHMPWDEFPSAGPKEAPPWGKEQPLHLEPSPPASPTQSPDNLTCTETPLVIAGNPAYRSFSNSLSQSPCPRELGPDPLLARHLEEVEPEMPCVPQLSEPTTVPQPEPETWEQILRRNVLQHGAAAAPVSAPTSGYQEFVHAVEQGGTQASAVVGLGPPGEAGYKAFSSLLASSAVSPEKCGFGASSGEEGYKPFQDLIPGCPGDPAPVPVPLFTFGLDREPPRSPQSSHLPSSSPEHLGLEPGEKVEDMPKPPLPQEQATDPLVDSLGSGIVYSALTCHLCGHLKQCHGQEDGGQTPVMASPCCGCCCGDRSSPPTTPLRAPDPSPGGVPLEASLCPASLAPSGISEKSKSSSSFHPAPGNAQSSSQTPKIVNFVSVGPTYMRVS

[4] = target: T1, human IL-4Rα (interleukin 4 receptor …); test: SPR, Biacore 8K+ multi-cycle capture kinetics; antibody captured on goat anti-human polyclonal surface, human IL-4Rα as analyte, 25 C, 1:1 model
[5] = target: T1, human IL-4Rα (interleukin 4 receptor …); test: indirect ELISA on plate-coated recombinant human IL-4Rα (2 ug/mL), anti-human IgG Fc-HRP, A450; remark: listed apart in the source
[6] = target: T1, human IL-4Rα (interleukin 4 receptor …); test: cell-based or functional assay

B1: AB-10c (antibody, human IgG4 S228P, kappa, V domains shown)
VH: EVQLVESGGGLEQPGGSLRLSCAGSGFTFRDYAMTWVRQAPGKGLEWVSSISGSGDKTYYADSVKGRFTISRDNSKNTLYLQMNSLRAEDTAVYYCARDRLSSSARPVYVGLDVWGQGTTVTVSS
VL: DIVMTQSPLSLPVTPGEPASISCRSSQSLLYSVGKNYLDWYLQKSGQSPQLLIYLASNRASGVPDRFSGSGSGTDFTLKISRVEAEDVGFYYCMQDLFHPYTFGQGTKLEIKR
notes: hIgG4 WT, kappa
Work on B1 yielded a Kd [1] of 546 nM.

B2: AB-3c (antibody, human IgG4 S228P, kappa)
heavy chain: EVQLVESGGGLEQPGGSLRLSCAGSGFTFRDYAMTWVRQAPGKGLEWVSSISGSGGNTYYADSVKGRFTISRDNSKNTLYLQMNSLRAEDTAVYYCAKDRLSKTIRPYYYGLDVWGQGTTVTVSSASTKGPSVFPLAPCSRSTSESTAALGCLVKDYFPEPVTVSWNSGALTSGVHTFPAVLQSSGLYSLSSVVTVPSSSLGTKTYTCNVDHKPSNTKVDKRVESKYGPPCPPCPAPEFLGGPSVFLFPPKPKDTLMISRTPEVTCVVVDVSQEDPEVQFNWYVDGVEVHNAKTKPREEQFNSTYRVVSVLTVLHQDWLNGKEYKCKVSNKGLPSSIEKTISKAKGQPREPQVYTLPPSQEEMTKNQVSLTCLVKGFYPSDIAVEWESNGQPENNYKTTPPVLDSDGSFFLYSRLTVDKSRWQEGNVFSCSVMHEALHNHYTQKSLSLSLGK
light chain: DIVMTQSPLSLPVTPGEPASISCRSSQSLLYSTGYNYLDWYLQKSGQSPQLLIYLGSNRASGVPDRFSGSGSGTDFTLKISRVEAEDVGFYYCMQSLSTPYTFGQGTKLEIKRTVAAPSVFIFPPSDEQLKSGTASVVCLLNNFYPREAKVQWKVDNALQSGNSQESVTEQDSKDSTYSLSSTLTLSKADYEKHKVYACEVTHQGLSSPVTKSFNRGEC
notes: hIgG4 WT ('c')
With B2 the “EC50 (read off the curve)” value [2] was ~0.1 nM.

B3: AB-13c (antibody, human IgG4 S228P, kappa)
heavy: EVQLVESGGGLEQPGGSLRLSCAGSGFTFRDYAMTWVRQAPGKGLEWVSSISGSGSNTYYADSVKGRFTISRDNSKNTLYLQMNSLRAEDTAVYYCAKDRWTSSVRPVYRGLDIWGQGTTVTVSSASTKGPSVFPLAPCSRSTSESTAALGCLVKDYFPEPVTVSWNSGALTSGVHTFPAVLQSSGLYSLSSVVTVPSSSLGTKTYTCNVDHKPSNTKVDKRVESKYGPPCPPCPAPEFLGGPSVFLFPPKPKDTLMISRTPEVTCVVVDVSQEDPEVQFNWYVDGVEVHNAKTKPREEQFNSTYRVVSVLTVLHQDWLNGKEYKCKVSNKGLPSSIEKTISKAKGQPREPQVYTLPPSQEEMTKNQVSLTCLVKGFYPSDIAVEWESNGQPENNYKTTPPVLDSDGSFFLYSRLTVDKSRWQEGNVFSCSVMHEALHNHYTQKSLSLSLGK
light: DIVMTQSPLSLPVTPGEPASISCRSSQSLLYSHGYNYLDWYLQKSGQSPQLLIYLASNRASGVPDRFSGSGSGTDFTLKISRVEAEDVGFYYCMQSLYTPYTFGQGTKLEIKRTVAAPSVFIFPPSDEQLKSGTASVVCLLNNFYPREAKVQWKVDNALQSGNSQESVTEQDSKDSTYSLSSTLTLSKADYEKHKVYACEVTHQGLSSPVTKSFNRGEC
notes: hIgG4 wild type, kappa
In the case of B3, the “Inhibition of CD23 Expression by Primary B cells (IC50), Donor 13” value [3] is reported as 24.9 nM, the “Inhibition of CD23 Expression by Primary B cells (IC50), Donor 52” value [3] is reported as 23 nM and the “Inhibition of CD23 Expression by Primary B cells (IC50), Donor 53” value [3] is reported as 26.2 nM. For the same binder, the “Inhibition of CD23 Expression by Primary B cells (IC50), Donor 56” value [3] was 25.8 nM, the “EC50 (read off the curve)” value [2] was ~0.05 nM and the Kd [4] was 0.0266 nM. For the same binder, the koff [4] was 2.22e-05 s⁻¹, the kon [4] was 836000 M⁻¹ s⁻¹ and the Kd [1] was ≤ 0.12 nM.

B4: AB-9d (antibody, human IgG1, kappa)
heavy chain: not shown
light chain: DIVMTQSPLSLPVTPGEPASISCRSSQSLLYSLGYNYLDWYLQKSGQSPQLLIYLASNRASGVPDRFSGSGSGTDFTLKISRVEAEDVGFYYCMQSLQTPYTFGQGTKLEIKRTVAAPSVFIFPPSDEQLKSGTASVVCLLNNFYPREAKVQWKVDNALQSGNSQESVTEQDSKDSTYSLSSTLTLSKADYEKHKVYACEVTHQGLSSPVTKSFNRGEC
notes: hIgG1 ('d')
With B4 the “EC50 (read off the curve)” value [5] was ~0.02 nM.

B5: AB-7c (antibody, human IgG4 S228P, kappa, V domains shown)
VH: EVQLVESGGGLEQPGGSLRLSCAGSGFTFRDYAMTWVRQAPGKGLEWVSSISGSGSTTYYADSVKGRFTISRDNSKNTLYLQMNSLRAEDTAVYYCAKDRLTASVRPIYVGLDVWGQGTTVTVSS
VL: DIVMTQSPLSLPVTPGEPASISCRSSQSLLYSEGYNYLDWYLQKSGQSPQLLIYLASNRASGVPDRFSGSGSGTDFTLKISRVEAEDVGFYYCMQTLKTPYTFGQGTKLEIKR
notes: hIgG4 WT, kappa
For B5, the Kd [1] was 0.3 nM.

B6: AB-8c (antibody, human IgG4 S228P, kappa, V domains shown)
VH: EVQLVESGGGLEQPGGSLRLSCAGSGFTFRDYAMTWVRQAPGKGLEWVSSISGSGSNTYYADSVKGRFTISRDNSKNTLYLQMNSLRAEDTAVYYCAKDRLTASVRPNYYGLDVWGQGTTVTVSS
VL: DIVMTQSPLSLPVTPGEPASISCRSSQSLLYSEGYNYLDWYLQKSGQSPQLLIYLASNRASGVPDRFSGSGSGTDFTLKISRVEAEDVGFYYCMQSLTTPYTFGQGTKLEIKR
notes: hIgG4 WT, kappa
In the case of B6, the Kd [1] is reported as 0.85 nM.

B7: AB-1d (antibody, human IgG1, kappa, V domains shown)
VH: EVQLVESGGGLEQPGGSLRLSCAGSGFTFSDYAMTWVRQAPGKGLEWVSSISGSGGNTYYADSVKGRFTISRDNSKNTLYLQMNSLRAEDTAVYYCAKDALTIAIRPYYYGLDVWGQGTTVTVSS
VL: DIVMTQSPLSLPVTPGEPASISCRSSQSLDYSYGYNYLDWYLQKSGQSPQLLIYLASNRASGVPDRFSGSGSGTDFTLKISRVEAEDVGFYYCMQSLSTPYTFGQGTKLEIKR
notes: hIgG1 ('d')
B7: binds [5].

B8: AB-9c (antibody, human IgG4 S228P, kappa)
heavy: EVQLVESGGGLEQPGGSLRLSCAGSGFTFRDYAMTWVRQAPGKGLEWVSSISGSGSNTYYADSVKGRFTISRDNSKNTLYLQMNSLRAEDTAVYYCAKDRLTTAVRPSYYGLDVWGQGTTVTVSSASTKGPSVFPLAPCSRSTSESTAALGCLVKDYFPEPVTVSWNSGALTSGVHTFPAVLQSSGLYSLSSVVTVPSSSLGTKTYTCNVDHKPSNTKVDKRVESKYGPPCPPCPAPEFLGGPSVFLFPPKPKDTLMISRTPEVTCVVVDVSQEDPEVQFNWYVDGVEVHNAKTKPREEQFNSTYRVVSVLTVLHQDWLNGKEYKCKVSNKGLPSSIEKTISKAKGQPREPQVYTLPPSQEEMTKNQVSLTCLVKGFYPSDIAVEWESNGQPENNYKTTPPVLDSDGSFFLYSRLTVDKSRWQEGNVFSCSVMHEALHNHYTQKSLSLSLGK
light: DIVMTQSPLSLPVTPGEPASISCRSSQSLLYSLGYNYLDWYLQKSGQSPQLLIYLASNRASGVPDRFSGSGSGTDFTLKISRVEAEDVGFYYCMQSLQTPYTFGQGTKLEIKRTVAAPSVFIFPPSDEQLKSGTASVVCLLNNFYPREAKVQWKVDNALQSGNSQESVTEQDSKDSTYSLSSTLTLSKADYEKHKVYACEVTHQGLSSPVTKSFNRGEC
notes: hIgG4 WT, kappa
B8 was tested, and the “EC50 (read off the curve)” value [2] was ~0.02 nM and the Kd [1] was 0.63 nM.

B9: AB-11c (antibody, human IgG4 S228P, kappa, V domains shown)
VH: EVQLVESGGGLEQPGGSLRLSCAGSGFTFRDYAMTWVRQAPGKGLEWVSSISGSGTNTYYADSVKGRFTISRDNSKNTLYLQMNSLRAEDTAVYYCAKDRLSVSTRPKYYGLDVWGQGTTVTVSS
VL: DIVMTQSPLSLPVTPGEPASISCRSSQSLDYSYGYNYLDWYLQKSGQSPQLLIYLASNRASGVPDRFSGSGSGTDFTLKISRVEAEDVGFYYCMQSLHTPYTFGQGTKLEIKR
notes: hIgG4 WT, kappa
B9 showed a Kd [1] of 0.83 nM.

B10: AB-12d (antibody, human IgG1, kappa)
heavy chain: not shown
light chain: DIVMTQSPLSLPVTPGEPASISCRSSQSLLYSQGYNYLDWYLQKSGQSPQLLIYLASNRASGVPDRFSGSGSGTDFTLKISRVEAEDVGFYYCMQSLFTPYTFGQGTKLEIKRTVAAPSVFIFPPSDEQLKSGTASVVCLLNNFYPREAKVQWKVDNALQSGNSQESVTEQDSKDSTYSLSSTLTLSKADYEKHKVYACEVTHQGLSSPVTKSFNRGEC
For B10, the “IC50 (read off the curve)” value [6] was ~0.4 nM.

B11: AB-12c (antibody, human IgG4 S228P, kappa)
heavy: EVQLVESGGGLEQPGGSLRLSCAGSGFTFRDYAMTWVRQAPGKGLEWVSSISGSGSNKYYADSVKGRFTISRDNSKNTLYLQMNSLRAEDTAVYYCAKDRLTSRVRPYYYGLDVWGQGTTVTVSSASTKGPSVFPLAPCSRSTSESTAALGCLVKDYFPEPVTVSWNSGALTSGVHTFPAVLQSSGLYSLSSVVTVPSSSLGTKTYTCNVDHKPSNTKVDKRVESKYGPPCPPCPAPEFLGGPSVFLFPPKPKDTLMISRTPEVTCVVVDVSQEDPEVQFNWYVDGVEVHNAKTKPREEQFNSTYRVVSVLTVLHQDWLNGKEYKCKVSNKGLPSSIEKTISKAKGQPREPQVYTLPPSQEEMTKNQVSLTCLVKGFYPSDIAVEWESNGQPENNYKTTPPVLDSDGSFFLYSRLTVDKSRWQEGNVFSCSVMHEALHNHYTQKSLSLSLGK
light: DIVMTQSPLSLPVTPGEPASISCRSSQSLLYSQGYNYLDWYLQKSGQSPQLLIYLASNRASGVPDRFSGSGSGTDFTLKISRVEAEDVGFYYCMQSLFTPYTFGQGTKLEIKRTVAAPSVFIFPPSDEQLKSGTASVVCLLNNFYPREAKVQWKVDNALQSGNSQESVTEQDSKDSTYSLSSTLTLSKADYEKHKVYACEVTHQGLSSPVTKSFNRGEC
notes: hIgG4 WT, kappa
B11 was tested, and the Kd [1] was ≤ 0.09 nM.
